From paper doi:10.1101/2025.01.21.634180

Molecular target: GIV (Gα-interacting vesicle-associated protein, also known as Girdin), endogenous (human (endogenous in THP1)) (UniProt Q3V6T2)
Chain of UniProt Q3V6T2 (Q3V6T2 whole entry): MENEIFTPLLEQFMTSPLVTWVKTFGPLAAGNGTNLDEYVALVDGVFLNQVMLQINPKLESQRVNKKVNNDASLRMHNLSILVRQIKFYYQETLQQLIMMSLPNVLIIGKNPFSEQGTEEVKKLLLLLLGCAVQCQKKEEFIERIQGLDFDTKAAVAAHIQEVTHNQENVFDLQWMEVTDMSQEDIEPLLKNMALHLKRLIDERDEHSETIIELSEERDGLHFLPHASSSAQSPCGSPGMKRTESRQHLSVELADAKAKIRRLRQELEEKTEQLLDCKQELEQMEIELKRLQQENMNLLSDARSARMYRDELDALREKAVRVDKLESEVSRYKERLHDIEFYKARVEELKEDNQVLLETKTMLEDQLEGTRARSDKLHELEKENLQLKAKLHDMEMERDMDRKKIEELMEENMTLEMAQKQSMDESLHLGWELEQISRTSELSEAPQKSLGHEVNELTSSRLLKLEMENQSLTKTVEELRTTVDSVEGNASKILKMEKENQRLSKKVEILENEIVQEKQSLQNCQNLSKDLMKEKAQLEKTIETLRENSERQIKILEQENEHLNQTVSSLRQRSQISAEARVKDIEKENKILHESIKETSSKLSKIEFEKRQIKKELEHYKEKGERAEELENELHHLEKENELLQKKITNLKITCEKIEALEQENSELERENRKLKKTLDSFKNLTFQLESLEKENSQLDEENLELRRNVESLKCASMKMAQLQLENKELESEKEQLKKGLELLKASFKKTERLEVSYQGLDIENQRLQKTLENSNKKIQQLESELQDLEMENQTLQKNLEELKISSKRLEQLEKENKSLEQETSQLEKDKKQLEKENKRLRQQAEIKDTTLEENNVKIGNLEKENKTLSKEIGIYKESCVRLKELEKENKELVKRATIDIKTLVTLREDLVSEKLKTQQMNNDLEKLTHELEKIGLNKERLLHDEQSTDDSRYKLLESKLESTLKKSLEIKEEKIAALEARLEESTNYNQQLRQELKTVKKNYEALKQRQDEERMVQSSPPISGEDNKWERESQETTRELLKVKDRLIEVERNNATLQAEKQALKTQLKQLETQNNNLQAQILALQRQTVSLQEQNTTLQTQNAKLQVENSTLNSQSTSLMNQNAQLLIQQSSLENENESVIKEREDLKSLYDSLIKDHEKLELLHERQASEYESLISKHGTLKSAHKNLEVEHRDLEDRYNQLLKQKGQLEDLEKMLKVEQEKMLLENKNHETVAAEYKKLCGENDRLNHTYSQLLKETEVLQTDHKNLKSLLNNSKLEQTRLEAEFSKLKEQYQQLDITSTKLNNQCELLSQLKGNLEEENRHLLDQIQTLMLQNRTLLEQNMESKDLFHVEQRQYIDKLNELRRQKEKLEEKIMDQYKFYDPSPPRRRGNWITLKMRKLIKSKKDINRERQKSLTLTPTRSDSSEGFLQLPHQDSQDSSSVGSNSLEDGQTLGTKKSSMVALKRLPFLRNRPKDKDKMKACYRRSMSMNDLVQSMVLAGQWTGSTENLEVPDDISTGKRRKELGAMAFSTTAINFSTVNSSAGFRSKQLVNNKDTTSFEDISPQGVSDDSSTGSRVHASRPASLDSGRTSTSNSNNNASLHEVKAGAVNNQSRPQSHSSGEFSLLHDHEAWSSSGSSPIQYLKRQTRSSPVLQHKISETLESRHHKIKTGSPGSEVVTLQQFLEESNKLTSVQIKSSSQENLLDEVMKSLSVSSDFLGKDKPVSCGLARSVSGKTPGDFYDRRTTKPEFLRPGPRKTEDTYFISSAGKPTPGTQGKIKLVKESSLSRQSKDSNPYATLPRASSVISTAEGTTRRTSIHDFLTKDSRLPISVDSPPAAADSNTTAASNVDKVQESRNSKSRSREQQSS

suppression of LPS (100 ng/ml)-induced NFκB activation by MDP (10 μg/ml) pretreatment, luciferase reporter assay in HeLa cells transfected with NOD2-1007fs (% protection): 20%
Substance: HA-tagged NOD2–1007fs (from UniProt Q9HC29 1-1040) (natural protein)
